Tested on: T1, His6-SACE_3446B (Saccharopolyspora erythraea A226), ORF:3b7da887
T1 sequence: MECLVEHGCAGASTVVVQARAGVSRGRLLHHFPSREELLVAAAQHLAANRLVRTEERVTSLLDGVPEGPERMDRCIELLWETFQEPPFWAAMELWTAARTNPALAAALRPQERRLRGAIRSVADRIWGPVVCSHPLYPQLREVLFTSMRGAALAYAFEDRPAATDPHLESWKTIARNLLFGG
Assay: EMSA
Settings: 10 mM Tris pH 7.5, 5 mM MgCl2, 50 mM EDTA ([…]

Sequence | binding
GCGAGTGTCCGTTCGAGTGGCGGCTTGCGCCCGATGCTAGTCGCGGTTGATCGGCGATCGCAGGTGCACGCGGTCGATCTTGACGGCTGGCGAGAGGTGCGGGGAGGATCTGACCGACGCGGTCCACACGTGGCACCGCGATGCTGTTGTGGGCTGGACAATCGTGCCGGTTGGTAGGATCCAGCG (double strand) [ermE promoter] | no binding
GCGTCCCCCTACTCGACGACCACGCAATGGGCGAACAATATAGGAAGGATCAAGAGGTTGACATCGCCTCGTCGAGCCAACGAACCTGTGAACATCTGCATGTTGACAAGATCAACGGCGGCTACCTACTGTGGTGGCCCAGTGACGGGTTGCCGCACATCGCGCTGGGGAGATTCTTTGAATTTCGCCCGTAGCACCGACCTGGAAAGCGAGCAAATGCTCCG (double strand) [eryAI promoter] | no binding

Reference: article PMC5640589
